Experimental data as given in patent publication US12404328 (CULLINAN MANAGEMENT, dated 2025).

T1: monomeric CD19 extracellular domain (UniProt P15391 20-291, limits assumed)
T1 construct: extracellular domain; also called monomeric CD19 protein
T1 sequence (looked up): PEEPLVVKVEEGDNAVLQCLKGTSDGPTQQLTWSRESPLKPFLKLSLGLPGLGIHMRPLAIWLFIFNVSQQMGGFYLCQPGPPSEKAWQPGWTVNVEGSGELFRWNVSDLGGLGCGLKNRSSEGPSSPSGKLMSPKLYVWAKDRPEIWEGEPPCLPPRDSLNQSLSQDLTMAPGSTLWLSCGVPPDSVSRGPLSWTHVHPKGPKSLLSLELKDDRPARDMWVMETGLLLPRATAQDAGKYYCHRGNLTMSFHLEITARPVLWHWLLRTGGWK

T2: dimeric CD19 extracellular domain fused with human IgG1 Fc (human, UniProt P15391 20-291, limits assumed)
T2 construct: extracellular domain; also called dimeric CD19 protein; not shown: human IgG1 Fc
T2 sequence (looked up): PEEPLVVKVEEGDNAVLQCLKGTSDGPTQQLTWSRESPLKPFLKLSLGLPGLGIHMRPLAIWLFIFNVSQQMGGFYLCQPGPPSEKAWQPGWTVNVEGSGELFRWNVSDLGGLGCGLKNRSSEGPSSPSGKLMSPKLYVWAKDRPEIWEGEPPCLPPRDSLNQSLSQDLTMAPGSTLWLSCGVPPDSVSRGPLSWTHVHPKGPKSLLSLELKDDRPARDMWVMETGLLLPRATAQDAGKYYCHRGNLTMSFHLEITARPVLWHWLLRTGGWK


Legend:
[1] = target: T1, monomeric CD19 extracellular domain; test: SPR as printed, ForteBio instrument (per Estep et al. 2013); monomeric CD19 extracellular domain; monomeric CD19 protein
Method: (§1) As noted above, the constructs produced contained an anti-CD19 scFv having the amino acid sequence set forth in SEQ ID NO: 9 or 18. The binding affinity of the two CD19 binding domains to CD19 were measured by SPR using a monomeric CD19 extracellular domain and a dimeric CD19 extracellular domain fused with human IgG1 Fc. Binding kinetic parameters were measured using an instrument (available under the tradename ForteBio™ from Pall Corporation®) generally as previously described (see, Estep et al. (2013) MAbs, 5 (2): 270-78).

[2] = target: T2, dimeric CD19 extracellular domain fused …; test: SPR as printed, ForteBio instrument (per Estep et al. 2013); dimeric CD19 extracellular domain-human IgG1 Fc; dimeric CD19 protein (IgG1 Fc fusion)
Method: as §1

Binder	Kd [1]	Kd [2]
CD19 binding domain having the sequence of SEQ ID NO: 9 (scFv, also called Roche mAb scFv) scFv: QVQLVQSGAEVKKPGASVKVSCKASGYTFTDYIMHWVRQAPGQGLEWMGYINPYNDGSKYTEKFQGRVTMTSDTSISTAYMELSRLRSDDTAVYYCARGTYYYGPQLFDYWGQGTTVTVSSGGGGSGGGGSGGGGSDIVMTQTPLSLSVTPGQPASISCKSSQSLETSTGTTYLNWYLQKPGQSPQLLIYRVSKRFSGVPDRFSGSGSGTDFTLKISRVEAEDVGVYYCLQLLEDPYTFGQGTKLEIK	7 nM	5 nM
CD19 binding domain having the sequence of SEQ ID NO: 18 (scFv, also called SG mAb scFv) scFv: QVQLQESGPGLVKPSQTLSLTCTVSGGSISTSGMGVGWIRQHPGKGLEWIGHIWWDDDKRYNPALKSRVTISVDTSKNQFSLKLSSVTAADTAVYYCARMELWSYYFDYWGQGTLVTVSSGGGGSGGGGSGGGGSEIVLTQSPATLSLSPGERATLSCSASSSVSYMHWYQQKPGQAPRLLIYDTSKLASGIPARFSGSGSGTDFTLTISSLEPEDFAVYYCFQGSVYPFTFGQGTKLEIKR	11 nM	15 nM
